This is an account of results in paper PMC3936483 (The Biochemical journal, 2008).

“And” between values parts separate entries of the source, which are not always exact repeats. Equal values may be shown once.

B1: CTRP6 (C1q/TNF-related protein 6), C-terminal FLAG- or HA-tagged, full length (natural protein, UniProt Q6IR41 25-264, looked up)
chain: VPTEETTFGESVASHLPKGCRRCCDPEDLMSSDDTVQAPVSPYVLPEVRPYINITILKGDKGDRGPTGTPGKPGKNGTRGDRGSQGVKGDKGQAGSPGSSCQTHYSAFSVGRKTGLHSSENFLSLLFDRVFVNTDGHFDMATGSFVAPLRGLYFFSLNVHSWNYKETYVHIVHNEQAVVILYAQPSERSIMQSQSVMLPLVPGDRVWVRLFKRERENGIYSDDVDTYITFSGHLIKAEDN
modifications: N-linked glycans (sites not given)
B2: CTRP6ΔCys (C44A/C47A/C48A/C125A), C-terminal FLAG- or HA-tagged (natural protein, UniProt Q6IR41 25-264, looked up)
chain: VPTEETTFGESVASHLPKGARRAADPEDLMSSDDTVQAPVSPYVLPEVRPYINITILKGDKGDRGPTGTPGKPGKNGTRGDRGSQGVKGDKGQAGSPGSSAQTHYSAFSVGRKTGLHSSENFLSLLFDRVFVNTDGHFDMATGSFVAPLRGLYFFSLNVHSWNYKETYVHIVHNEQAVVILYAQPSERSIMQSQSVMLPLVPGDRVWVRLFKRERENGIYSDDVDTYITFSGHLIKAEDN
B3: CTRP1ΔCys (C73A/C76A/C77A/C141A), C-terminal FLAG-tagged (natural protein, mouse, UniProt Q9QXP7 26-281, looked up)
chain: LVPRVQEEQQEWEETEELPSPLDPVTRPEETREKYSPRQGEDLPTSRAYRAADPSTPVYQTIPPPQINITILKGEKGDRGDRGLQGKYGKIGSTGPRGHVGPKGQKGSIGAPGNHAKSQYAAFSVGRKKALHSNDYFQPVVFDTEFVNLYKHFNMFTGKFYCYVPGIYFFSLNVHTWNQKETYLHIMKNEEEVVILYAQVSDRSIMQSQSLMMELREEDEVWVRLFKGERENAIFSDEFDTYITFSGYLVKPASEP
B4: CTRP1 (C1q/TNF-related protein 1), C-terminal FLAG- or HA-tagged, full length (natural protein, mouse, UniProt Q9QXP7 26-281, looked up)
chain: LVPRVQEEQQEWEETEELPSPLDPVTRPEETREKYSPRQGEDLPTSRCYRCCDPSTPVYQTIPPPQINITILKGEKGDRGDRGLQGKYGKIGSTGPRGHVGPKGQKGSIGAPGNHCKSQYAAFSVGRKKALHSNDYFQPVVFDTEFVNLYKHFNMFTGKFYCYVPGIYFFSLNVHTWNQKETYLHIMKNEEEVVILYAQVSDRSIMQSQSLMMELREEDEVWVRLFKGERENAIFSDEFDTYITFSGYLVKPASEP
modifications: N-linked glycans (site not given)
B5: CTRP10 (C1q/TNF-related protein 10), C-terminal FLAG- or HA-tagged, full length (natural protein, mouse, UniProt Q8CFR0 22-287, looked up)
chain: HYEMLGTCRMICDPYSVAPAGGPAGAKAPPPGPSTAALEVMQDLSANPPPPFIQGPKGDPGRPGKPGPRGPPGEPGPPGPRGPPGEKGDSGRPGLPGLQLTTSAAGGVGVVSGGTGGGGDTEGEVTSALSAAFSGPKIAFYVGLKSPHEGYEVLKFDDVVTNLGNHYDPTTGKFSCQVRGIYFFTYHILMRGGDGTSMWADLCKNGQVRASAIAQDADQNYDYASNSVVLHLDSGDEVYVKLDGGKAHGGNNNKYSTFSGFLLYPD
modifications: carbohydrate moieties (type and sites not determined; none N-linked)
B6: CTRP10ΔCys (C29A/C33A), C-terminal FLAG-tagged (natural protein, mouse, UniProt Q8CFR0 22-287, looked up)
chain: HYEMLGTARMIADPYSVAPAGGPAGAKAPPPGPSTAALEVMQDLSANPPPPFIQGPKGDPGRPGKPGPRGPPGEPGPPGPRGPPGEKGDSGRPGLPGLQLTTSAAGGVGVVSGGTGGGGDTEGEVTSALSAAFSGPKIAFYVGLKSPHEGYEVLKFDDVVTNLGNHYDPTTGKFSCQVRGIYFFTYHILMRGGDGTSMWADLCKNGQVRASAIAQDADQNYDYASNSVVLHLDSGDEVYVKLDGGKAHGGNNNKYSTFSGFLLYPD
B7: adiponectin, C-terminal FLAG- or HA-tagged, full length (natural protein, UniProt Q60994 18-247, looked up)
chain: EDDVTTTEELAPALVPPPKGTCAGWMAGIPGHPGHNGTPGRDGRDGTPGEKGEKGDAGLLGPKGETGDVGMTGAEGPRGFPGTPGRKGEPGEAAYVYRSAFSVGLETRVTVPNVPIRFTKIFYNQQNHYDGSTGKFYCNIPGLYYFSYHITVYMKDVKVSLFKKDKAVLFTYDQYQEKNVDQASGSVLLHLEVGDQVWLQVYGDGDHNGLYADNVNDSTFTGFLLYHDTN
B8: CTRP5ΔCys (C28A/C98A), C-terminal FLAG-tagged (natural protein, UniProt Q8K479 16-243, looked up)
chain: SPPLDDNKIPSLAPGQPGLPGTPGHHGSQGLPGRDGRDGRDGAPGAPGEKGEGGRPGLPGPRGEPGPRGEAGPMGAIGPAGEASVPPRSAFSAKRSESRVPPPADTPLPFDRVLLNEQGHYDPTTGKFTCQVPGVYYFAVHATVYRASLQFDLVKNGQSIASFFQYFGGWPKPASLSGGAMVRLEPEDQVWVQVGVGDYIGIYASIKTDSTFSGFLVYSDWHSSPVFA
B9: CTRP5 (C1q/TNF-related protein 5), C-terminal FLAG- or HA-tagged, full length (natural protein, UniProt Q8K479 16-243, looked up)
chain: SPPLDDNKIPSLCPGQPGLPGTPGHHGSQGLPGRDGRDGRDGAPGAPGEKGEGGRPGLPGPRGEPGPRGEAGPMGAIGPAGECSVPPRSAFSAKRSESRVPPPADTPLPFDRVLLNEQGHYDPTTGKFTCQVPGVYYFAVHATVYRASLQFDLVKNGQSIASFFQYFGGWPKPASLSGGAMVRLEPEDQVWVQVGVGDYIGIYASIKTDSTFSGFLVYSDWHSSPVFA
modifications: carbohydrate moieties (type and sites not determined; none N-linked)
B10: CTRP3ΔCys (C39A/C42A/C43A), C-terminal FLAG-tagged (natural protein, UniProt Q9ES30 23-246, looked up)
chain: QDEYMESPQAGGLPPDASKAAHGDYGFRGYQGPPGPPGPPGIPGNHGNNGNNGATGHEGAKGEKGDKGDLGPRGERGQHGPKGEKGYPGVPPELQIAFMASLATHFSNQNSGIIFSSVETNIGNFFDVMTGRFGAPVSGVYFFTFSMMKHEDVEEVYVYLMHNGNTVFSMYSYETKGKSDTSSNHAVLKLAKGDEVWLRMGNGALHGDHQRFSTFAGFLLFETK
B11: CTRP3 (C1q/TNF-related protein 3), C-terminal FLAG- or HA-tagged, full length (natural protein, UniProt Q9ES30 23-246, looked up)
chain: QDEYMESPQAGGLPPDCSKCCHGDYGFRGYQGPPGPPGPPGIPGNHGNNGNNGATGHEGAKGEKGDKGDLGPRGERGQHGPKGEKGYPGVPPELQIAFMASLATHFSNQNSGIIFSSVETNIGNFFDVMTGRFGAPVSGVYFFTFSMMKHEDVEEVYVYLMHNGNTVFSMYSYETKGKSDTSSNHAVLKLAKGDEVWLRMGNGALHGDHQRFSTFAGFLLFETK
modifications: carbohydrate moieties (type and sites not determined; none N-linked)
B12: serum CTRP5 (natural protein, mouse (endogenous in C57BL/6 serum), UniProt Q8K479 16-243, looked up)
chain: SPPLDDNKIPSLCPGQPGLPGTPGHHGSQGLPGRDGRDGRDGAPGAPGEKGEGGRPGLPGPRGEPGPRGEAGPMGAIGPAGECSVPPRSAFSAKRSESRVPPPADTPLPFDRVLLNEQGHYDPTTGKFTCQVPGVYYFAVHATVYRASLQFDLVKNGQSIASFFQYFGGWPKPASLSGGAMVRLEPEDQVWVQVGVGDYIGIYASIKTDSTFSGFLVYSDWHSSPVFA

The first data set concerns the molecule itself. In words: SEC. (In general: Size exclusion chromatography separates by hydrodynamic size, large species first.)
Broadly, the stoichiometry N is a count of units in the complex or per binding partner. As for B1, the “stoichiometry N” value is ~6 and 3. Same read-out and setting: then B2, with 3; and B3, with 3; and B4, with 3.

Regarding B5, the “stoichiometry N” value was 3 and ~6. On the same count and under the same terms, then B6, with 3. B7: the “stoichiometry N” value was 3 and 6.

With B8, the “stoichiometry N” value worked out at 3. For B9, the “stoichiometry N” value was 3 and ~6. Same read-out and setting: then B10, with 3; and B11, with 3 and ~6.

A further data set concerns the molecule itself. In words: SEC. The source holds these as a separate data set.
B12: the “stoichiometry N” value came out at 3.
